Several values for one entry are separate records, joined by “and”; a condition that tells them apart may be missing. Identical values can stand only once. Values belong to the binder of their own block, whether it stands above or below them.
Tests used:
[1] = biological target: T1, pIGF-1R(1340-1366)[1346-pTyr]amid (phosphotyrosine at 1346 (1346-pTyr); C-terminal amide); experiment: SPR (Biacore 3000, 25 C), dual binder on biotinylated linker on SA chip, peptide in solution; T40-Bi linker (spacer T20-Biotin-dT-T20)
T1 construct: also called pIGF-1R peptide; phosphorylated IGF-1R peptide (free in solution)
T1 peptide: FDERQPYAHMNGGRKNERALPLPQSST
Description: (§1) A BIACORE™ 3000 instrument (GE Healthcare) was used with a BIACORE™ SA sensor mounted into the system at T=25° C. The system was preconditioned at 100 μl/min with 3 ×1 min injection of 1 M NaCl in 50 mM NaOH and 1 min 10 mM HCl.
(§2) 124 RU amino-PEO-biotin were captured on the reference flow cell 1.
(§3) As a control, buffer was injected instead of the ssFabs.

[2] = biological target: T1, pIGF-1R(1340-1366)[1346-pTyr]amid; experiment: SPR (Biacore 3000, SA sensor, 25 °C): ssFab′ hybridised on the captured biotinylated T40-Bi linker (linker 10), peptide injected in solution
Description: as §2, §3
(§4) The dissociation was monitored at 50 μl/min for 5.3 min. The system was regenerated after each concentration step with a 12 sec pulse of 250 mM NaOH and was reloaded with ssFab′ ligand.

IGF-1R(1340-1366)amid [3] = biological target: T2, IGF-1R(1340-1366)amid (C-terminal amide); experiment: as above
T2 construct: also called IGF-1R peptide; non-phosphorylated IGF-1R peptide (free in solution)
T2 peptide: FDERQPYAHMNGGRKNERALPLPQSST
Description: as §2, §3, §4

[4] = biological target: T3, IGF-1R(1340-1366)[1346-pTyr; Glu(Bi-PEG-1340]amid (not fully specified; phosphotyrosine at 1346 (1346-pTyr); biotin-PEG linker bound via glutamic acid corresponding to position 1340; C-terminal amide); experiment: SPR (Biacore 2000, 25 C), immobilised biotinylated peptide, 100 nM ssFab′ in solution
T3 construct: also called pIGF-1R peptide; phosphorylated IGF-1R peptide (biotinylated)
T3 peptide: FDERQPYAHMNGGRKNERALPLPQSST
Description: (§5) Subsequently biotinylated peptides were captured on the SA surface in the respective flow cells. […] Finally all flow cells were saturated with d-biotin.
(§6) Report points were set at the end of the analyte association phase (Binding Late, BL) and at the end of the analyte dissociation phase (Stability Late, SL) to monitor the response unit signal heights of each interaction. The dissociation rates kd (1/s) were calculated according to a linear 1:1 Langmuir fit using the BIACORE™ evaluation software 4.1. The complex halftimes in minutes were calculated upon the formula ln(2)/(60*kd).

[5] = biological target: T4, IGF-1R(1340-1366); Glu(Bi-PEG-1340]amid (not fully specified; biotin-PEG linker bound via glutamic acid corresponding to position 1340; C-terminal amide); experiment: as above
T4 construct: also called IGF-1R peptide; non-phosphorylated IGF-1R peptide (biotinylated)
T4 peptide: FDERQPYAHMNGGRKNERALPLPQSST
Description: as §5, §6

[6] = biological target: T1, pIGF-1R(1340-1366)[1346-pTyr]amid; experiment: SPR (Biacore 3000, SA sensor, 25 °C): ssFab′ hybridised on the captured biotinylated T0-Bi 37-mer linker, peptide injected in solution
Description: as §2, §3, §4

IGF-1R(1340-1366)amid [7] = biological target: T2, IGF-1R(1340-1366)amid; experiment: as above
Description: as §2, §3, §4

[8] = biological target: T1, pIGF-1R(1340-1366)[1346-pTyr]amid; experiment: SPR (Biacore 3000, 25 C), dual binder on biotinylated linker on SA chip, peptide in solution; T0 linker (no thymidine spacer)
Description: as §1, §2, §3

Kd [1]: 0.01 nM
Kd [2]: 0.0125 nM
Kd (IGF-1R(1340-1366)amid [3]): 0.973 nM and 1 nM
t1/2 diss (IGF-1R(1340-1366)amid [3]): 4.3 min
B1: T40 dual binding agent (ssFab′ 8.1.2 and ssFab′ 1.4.168 on the T40-Bi linker, linker 10) (bispecific antibody, V domains shown)
VH 1: EVQLQQSGPALVKPGASVKMSCKASGFTFTSYVIHWVKQKPGQGLEWIGYLNPYNDNTKYNEKFKGKATLTSDRSSSTVYMEFSSLTSEDSAVYFCARRGIYAYDHYFDYWGQGTSLTVSS
VL 1: QIVLTQSPAIMSASPGEKVTLTCSASSSVNYMYWYQQKPGSSPRLLIYDTSNLASGVPVRFSGSGSVTSYSLTISRMEAEDAATYYCQQWSTYPLTFGAGTKLELK
VH 2: QCDVKLVESGGGLVKPGGSLKLSCAASGFTFSDYPMSWVRQTPEKRLEWVATITTGGTYTYYPDSIKGRFTISRDNAKNTLYLQMGSLQSEDAAMYYCTRVKTDLWWGLAYWGQGTLVTVSA
VL 2: QLVLTQSSSASFSLGASAKLTCTLSSQHSTYTIEWYQQQPLKPPKYVMELKKDGSHTTGDGIPDRFSGSSSGADRYLSISNIQPEDESIYICGVGDTIKEQFVYVFGGGTKVTVLG
modifications: Fab′ hinge cysteine coupled to ssDNA

T1/2 dis [4]: 3 min
T1/2 dis [5]: 3 min
Kd [6]: 2.59 nM and 3 nM
t1/2 diss [6]: 4 min
Kd (IGF-1R(1340-1366)amid [7]): 1.35 nM and 1 nM
t1/2 diss (IGF-1R(1340-1366)amid [7]): 4 min
Kd [2]: 2.14 nM and 2 nM
Kd (IGF-1R(1340-1366)amid [3]): 1.1 nM and 1 nM
t1/2 diss (IGF-1R(1340-1366)amid [3]): 3 min
B2: ssFab′ 1.4.168 (Fab, V domains shown)
VH: DVKLVESGGGLVKPGGSLKLSCAASGFTFSDYPMSWVRQTPEKRLEWVATITTGGTYTYYPDSIKGRFTISRDNAKNTLYLQMGSLQSEDAAMYYCTRVKTDLWWGLAYWGQGTLVTVSA
VL: B1 VL 2
modifications: hinge-region cysteine of the Fab′ coupled via maleimide to a fluorescein-labelled ssDNA oligonucleotide
notes: Fab′ of murine mAb 1.4.168 (pepsin cleavage, cysteamine reduction), 1:1 conjugated to ssDNA; also called fluorescein-ssFab′ 1.4.168; ssFab′ 1.004.168

Kd [8]: 0.03 nM
Kd [6]: 0.0344 nM
Kd (IGF-1R(1340-1366)amid [7]): 1.2 nM and 1 nM
t1/2 diss (IGF-1R(1340-1366)amid [7]): 5 min
B3: T0 dual binding agent (ssFab′ 8.1.2 and ssFab′ 1.4.168 on the T0-Bi 37-mer linker) (bispecific antibody, V domains shown)
VH 1: B1 VH 1
VL 1: B1 VL 1
VH 2: B1 VH 2
VL 2: B1 VL 2
modifications: Fab′ hinge cysteine coupled to ssDNA

Source: patent US20200277406A1 (ROCHE DIAGNOSTICS OPERATIONS, published 2020)
